Experimental data published in patent publication US20060154859A1.

Molecular target: mouse LEPRb (mouse), P48356
Experiment: cell-based or functional assay

mouse LEPRb (mouse), P48356, sequence (P48356 22-1162): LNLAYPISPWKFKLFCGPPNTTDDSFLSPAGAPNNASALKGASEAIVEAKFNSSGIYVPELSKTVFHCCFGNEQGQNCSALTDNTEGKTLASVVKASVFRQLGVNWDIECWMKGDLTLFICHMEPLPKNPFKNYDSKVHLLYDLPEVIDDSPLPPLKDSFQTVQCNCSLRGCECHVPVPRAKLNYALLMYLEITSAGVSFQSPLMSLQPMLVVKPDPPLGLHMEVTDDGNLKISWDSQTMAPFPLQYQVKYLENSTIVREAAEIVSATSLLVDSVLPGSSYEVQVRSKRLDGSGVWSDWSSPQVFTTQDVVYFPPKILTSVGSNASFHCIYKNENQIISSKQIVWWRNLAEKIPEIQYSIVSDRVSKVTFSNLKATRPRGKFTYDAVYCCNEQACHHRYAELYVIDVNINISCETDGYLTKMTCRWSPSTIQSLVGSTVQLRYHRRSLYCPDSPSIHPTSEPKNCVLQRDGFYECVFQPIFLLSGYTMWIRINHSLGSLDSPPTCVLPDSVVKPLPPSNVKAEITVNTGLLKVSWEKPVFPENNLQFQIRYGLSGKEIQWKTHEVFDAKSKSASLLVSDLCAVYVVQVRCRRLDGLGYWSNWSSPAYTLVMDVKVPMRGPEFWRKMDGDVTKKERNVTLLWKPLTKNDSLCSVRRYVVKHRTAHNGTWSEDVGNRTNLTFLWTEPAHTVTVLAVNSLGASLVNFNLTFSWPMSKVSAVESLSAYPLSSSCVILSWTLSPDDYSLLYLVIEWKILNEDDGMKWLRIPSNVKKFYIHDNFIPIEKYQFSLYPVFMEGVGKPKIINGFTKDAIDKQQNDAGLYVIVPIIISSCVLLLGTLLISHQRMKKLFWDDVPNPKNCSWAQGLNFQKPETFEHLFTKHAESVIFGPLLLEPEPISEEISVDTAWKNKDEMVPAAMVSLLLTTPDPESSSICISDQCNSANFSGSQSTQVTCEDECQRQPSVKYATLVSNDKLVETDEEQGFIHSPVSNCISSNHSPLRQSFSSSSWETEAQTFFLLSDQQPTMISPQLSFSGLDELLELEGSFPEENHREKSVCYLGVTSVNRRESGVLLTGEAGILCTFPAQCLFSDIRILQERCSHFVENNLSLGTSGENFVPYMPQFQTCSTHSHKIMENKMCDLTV

B1: human leptin L39A/D40A/F41A/I42A mutant, P41159 22-167 (ligand)
chain: VPIQKVQDDTKTLIKTIVTRINDISHTQSVSSKQKVTGAAAAPGLHPILTLSKMDQTLAVYQQILTSMPSRNVIRISNDLENLRDLLHVLAFSKSCHLPWASGLETLDSLGGVLEASGYSTEVVALSRLQGSLQDMLWQLDLSPGC
In the case of B1, the inhibition of leptin-inducible transactivation of luciferase reporting gene in CHO cells transiently transfected with leptin receptor, stimulated with 6.25 nM human leptin is reported as 10 nM.
